“And” between values parts separate entries of the source, which are not always exact repeats. Equal entries are not always repeated. Blank lines part the entries; values can stand above or below the binder they belong to. Ends that are not written are not given here. helical region = not defined here
Legend:
[1] = molecular target: T1, PAK4 catalytic domain, purified recombinant (PAK4-cat) (human, UniProt O96013 286-591); assay: cell-based or functional assay
[2] = molecular target: T2, PAK4 catalytic domain (human, UniProt O96013 286-591); assay: ITC; Nano-ITC, 25 °C, PBS pH 7.4; 407 µM integrin β5^743–799 in the syringe titrated into 44 or 72 µM PAK4cat in the sample cell; PAK4cat pre-incubated with 5 mM MgCl2 and 1 mM AMP-PNP; 20 injections of 2.5 µL; settings: both partners purified
T2 construct: the GFP-PAK4-cat of the pull-downs is 302-591; The His tag is cleavable by TEV protease; also called PAK4 kinase domain; source: E. coli BL21-CodonPlus(DE3)RILP, purified (HisTrap, Resource Q, Superdex 200)

[3] = molecular target: T1, PAK4 catalytic domain, purified …; assay: ITC; Nano-ITC, 25 °C, PBS pH 7.4; 407 µM integrin β5 743–799 in the syringe, 44 and 72 µM PAK4cat (pre-incubated with 5 mM MgCl2 and 1 mM AMP-PNP) in the cell; 20 injections of 2.5 µL; settings: both partners purified
[4] = molecular target: T1, PAK4 catalytic domain, purified …; assay: pull-down; His-tagged β5 tails on Ni-NTA beads; varying concentrations of purified PAK4-cat in buffer X-T, 2 h, 4 °C; apparent affinity, one-site specific-binding model, three independent experiments; settings: both partners purified

T2 sequence (O96013 286-591): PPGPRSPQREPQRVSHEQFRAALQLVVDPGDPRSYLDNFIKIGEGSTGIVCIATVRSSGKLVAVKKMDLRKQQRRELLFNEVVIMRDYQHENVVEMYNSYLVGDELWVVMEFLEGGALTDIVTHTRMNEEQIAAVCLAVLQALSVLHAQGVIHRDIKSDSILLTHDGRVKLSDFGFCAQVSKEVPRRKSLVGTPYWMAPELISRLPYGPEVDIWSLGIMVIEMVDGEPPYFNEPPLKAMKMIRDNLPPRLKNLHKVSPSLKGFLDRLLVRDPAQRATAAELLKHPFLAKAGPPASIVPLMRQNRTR
T1 sequence (O96013 286-591): as above

inhibition of PAK4 phosphorylation of a LIMK1 10mer peptide (…, 50 µM) in a radioactive in vitro kinase assay, β5 peptide 0–1024 µM, 1 mg/ml BSA: IC50 [1]: 160 µM
Binder: Ac-ERSRARYEMAS-NH2 [integrin β5 peptide, residues Glu760-Ser770]

Kd [2]: 5.1 µM and 4.8 µM
stoichiometry N [2]: 1.4 and 0.7
B1: 6xHis integrin β5 full-length cytosolic peptide (residues 743–799) (domain or fragment, UniProt P18084 743-799, looked up)
chain: KLLVTIHDRREFAKFQSERSRARYEMASNPLYRKPISTHTVDFTFNKFNKSYNGTVD
modifications: also: 6xHis tag, position not given here
notes: also called integrin β5 cytoplasmic tail

Kd [3]: 4.95 ± 1.5 µM
dH [3]: -8.45 ± 0.75 kJ/mol
stoichiometry N [3]: 1.05 ± 0.35
B2: 6xHis integrin β5 full-length cytosolic peptide (residues 743–799) (domain or fragment, UniProt P18084 743-799, looked up)
chain: B1 chain
modifications: also: 6xHis tag, position not given here
notes: subcloned into a pET32 vector

Kd [4]: ~1.8 µM
B3: His-tagged recombinant model of the integrin β5 cytoplasmic tail (domain or fragment)
chain: {His‑tag-helical region-Gly4}-KLLVTIHDRREFAKFQSERSRARYEMASNPLYRKPISTHTVDFTFNKFNKSYNGTVD
modifications: not fully specified; reading uncertain

Reference: PMC9669019, “Molecular basis for integrin adhesion receptor binding to p21-activated kinase 4 (PAK4)” (Communications Biology, 2022)
